From the supplement of paper PMC10567573
± gives the standard deviation.

Experiment: protein stability index of a GFP-peptide fusion (GPS, HEK-293T) (PSI 1-6); higher = more stable
Conditions: c terminus: a fixed tail appended
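Note: 24-mer peptide tiles fused after GFP, lentivirally expressed, FACS-sorted into six equal bins by GFP/DsRed ratio, decoded by Illumina sequencing, PSI is the read-weighted mean bin number.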

Sequence	protein stability index (treatment: DMSO)	protein stability index (treatment: MLN4924 1 uM, 8 h)
TPPASPPPSVLISKNEVGIFTTPN [KMT2E]	4.03 ± 0.18	4.06 ± 0.1
LGLDDFESLKVIGRGAFGEVRLVQ [STK38L]	3.55 ± 0.58	3.38 ± 0.33
RLVVEFPATGGAIPSWQIRTVKLI [PKD2L1]	2.62 ± 0.53	2.16 ± 0.36
HICTNYNSVCSKFRKEIKSKSADN [RHOBTB1]	3.37 ± 0.21	3.54 ± 0.15
SDDFCTFQMVLEGGVCCTVTLNFN [GFOD1]	2.79 ± 0.48	3.02 ± 0.29
PSAGFRCCAAPGPHVALAVRYNRV [ANKRD9]	2.37 ± 0.28	2.21 ± 0.34
FKKGNRYIRCQKEVGKSFERHKLK [SMG5]	2.75 ± 0.23	2.85 ± 0.14
